We go through 41 sequences from the nanobody polyreactivity screen of Harvey et al. (2022).

The nature of the data set: yeast display, Sf9 membrane polyspecificity reagent, FACS + sequencing; frameworks hold sequencing errors. An outline of the steps: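 Synthetic nanobody libraries on Saccharomyces cerevisiae BJ5465 were galactose-induced for 36–48 hours, stained 1 hour at 4 °C with 10% biotinylated, detergent-solubilized Sf9 membrane reagent and enriched on streptavidin microbeads. FACS then separated cells into low and high (top ~1%) gates by anti-HA (expression) and streptavidin (reagent binding) fluorescence. Genes were colony-PCR amplified, MiSeq 2 × 250 sequenced and CDR-length filtered. A clone's polyreactivity label is that of its gate of origin.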
For “QVQLVESGGGLVQAGGSLRLSCAASGITFDQNAMGWSRQEPGKESEFVAAISVSGARTYYADSVKGRFTISRDNAKNTVYLQMNSLKPEDTAVYYCAAYGGTRYYYSYYYWGQGTQVTVSS”, the “polyreactivity (PSR sort gate)” value was “high polyreactivity”.
In the case of “QVQLVESGGGLVQAGGSLRLSCAASGITFDSYALGSYRQAPGKERELVAAISGSGGSTYYADSVKGRFTISRDNAKNTVYLQMNSLKPEDTAVYYCAADWYPTGFYYWGQGTQVTVSS”, the “polyreactivity (PSR sort gate)” value is “low polyreactivity”.
The result for “QVQLVESGGGLVQAGGSLRLSCAASGITFDSYAMGWYRQSPGKEREWVDAISYSGGSTYYADSVKGRFTISRDNAKNTVNLQMNRLKPEDTAVYYFAAASDEDYDYWGQGTQVTVSS” reads “low polyreactivity”; that for “QVQLVESGGGLVQAGGSLRLSCAASGITFDTYVMGWYRQAPGKERELVAAISNSDGSTYYADSVKGRFTISRDNAKNTVYLQMNSLKPEDTAVYYCNAQSYYYWHLRYDYWGQGTQVTVSS”, “high polyreactivity”; that for “QVQLVESGGGLVQAGGSLRLSCAASGITFDYYAMGWYRQAPGKERELVAAISRSGGSTYYADSVKGRFTISRDKAKNTVYLQMNSLKPEDTAVYYCAAYALTIRAYYYWGQGTQVTVSS”, “high polyreactivity”.
The result for “QVQLVESGGGLVQAGGSLRLSCAASGITFDYYAMGWYRQAPGKERELVAAITSRGGSTYYADSVKGRFTISRDNAKNTVYLQMNSLKPEDTAVYYCAAVRSGYYNYWGQGTQVTVSS” reads “high polyreactivity”; that for “QVQLVESGGGLVQAGGSLRLSCAASGITFDYYAMGWYRQAPRKERELVPGISWGGGSTYYADSVKGRFTISRDNAKNTVYLQMNSLKPEDTAVYYCAADIVSSPSSYVPPGDYWGQGTQVTVSS”, “low polyreactivity”; that for “QVQLVESGGGLVQAGGSLRLSCAASGITFDYYGMGWYIQAPGKERELVASITSGGSTNYADSVKGRFTISRDNPKNTVYLQMNSLKPEDTAVYYCNAEFWEVSPDPRDYDYWGQGTQVTVSS”, “low polyreactivity”.
On to “QVQLVESGGGLVQAGGSLRLSCAASGITFENYAMGWYRQAPGKETELVASITRSGGNTYYADSVKGRFTISRDTAKNSVYLQMNSLKPEDTAVYDCAKDSGLNDDFIYWGQGTQVTVSS”, for which the “polyreactivity (PSR sort gate)” value is on record as “low polyreactivity”.
The result for “QVQLVESGGGLVQAGGSLRLSCAASGITFEYNAMGWYRQAPGKERELVATISGGARTYYADSVKGRFTISRDNAKNTVYLQMNSLKPEETAVYYCAAKYPWYGWFDHWGQGTQVTVSS” reads “low polyreactivity”; that for “QVQLVESGGGLVQAGGSLRLSCAASGITFEYYAMGWYRQAPGKERELVAAIDTGGSTNYADSVKGRFTISRDNAKNTVYLQMNSLKPEDTAVYYCAADWSWWDGEDYHFEYDYWGQGTQVTVSS”, “low polyreactivity”; that for “QVQLVESGGGLVQAGGSLRLSCAASGITFEYYAMGWYRQAPGKERELVAAIDTVGSTNYADSVKGRFTISRDNAKNTVYLQMNSLKPEDTAVYYCAADWSWWDGEDYHFEYDYWGQGTQVTVSS”, “low polyreactivity”.
To “QVQLVESGGGLVQAGGSLRLSCAASGITFEYYDMGWYRQAPGKERELVAAISWSTDITYADSVKGRFTISRDNAKNTVYLQLNSLKPEDTAVYYCAALGGLSDFWHLYDYWGQGTQVTVSS” belongs “low polyreactivity”; to “QVQLVESGGGLVQAGGSLRLSCAASGITFFGYAMGWYRQAPGKERELVAGISRSTGRTYYADSVKGRFTISRDNAKNTVYLHMNSLKPEDTAVYYCNAELYPWPGVVRYNYWGQGTQVTVSS”, “high polyreactivity”.
To “QVQLVESGGGLVQAGGSLRLSCAASGITFFNYAMGWYRQAPGKERELVAAISGGSTYYADSVKGRFTISRDNAKNTVYLQMNSLKPEDTAVYYCAARVASKYLVYRKRPSRFDYWGQGTQVTVSS” belongs “low polyreactivity”.
“QVQLVESGGGLVQAGGSLRLSCAASGITFFRNAMGWYRQAPGKERELVAGISTTGGRTYYADSVKGRFTISRDKAKNTVYLQMNSLKPEDTAVYYCNTLVPRAGREYDYWGQGTQVTVSS”: the “polyreactivity (PSR sort gate)” value is given as “high polyreactivity”.
Consider “QVQLVESGGGLVQAGGSLRLSCAASGITFFRNAMGWYRQAPGKERELVAVITYSGGRTSYADSVKGRFTISRDNAKNTVYLQMNSLKPEDTAVYYCATEKWQSSPGYTYYFVEYDYWGQGTQVTVSS”, for which the “polyreactivity (PSR sort gate)” value is listed as “low polyreactivity”.
The result for “QVQLVESGGGLVQAGGSLRLSCAASGITFFSYAMGWYREAPGKERELVAAISRRTGSTYYADSVKGRFTISRDNGMNTVFLQMMSLKPEDTAVYYCAARLPGTRYPYDYWGQGTQVTVSS” reads “high polyreactivity”; that for “QVQLVESGGGLVQAGGSLRLSCAASGITFFTNVMGWYRPAPGKERELVAAISRSGTSTYYADSVKGRFTISRDNAKNTVYLQMNSLKPEDTAVYYCNADQIRGDGDYWGQGTQVTVSS”, “high polyreactivity”.
To “QVQLVESGGGLVQAGGSLRLSCAASGITFFWNAMGWYRTAPGKERELVAAISSGAGTTYADSVKGRFTISRDNAKNTVYLQMNSLKPEDTAVYYCAARRYRYAYGPYNYWGQGTQVTVSS” belongs “low polyreactivity”; to “QVQLVESGGGLVQAGGSLRLSCAASGITFFYNAMGWYRQAPGKERELVADITNSGSTYYADSVKGRFTISRDNAKNTVYLQMNSLKPEDTAVYYCAAGQAYDYFVYYPDDYWGQGTQVTVSS”, “low polyreactivity”; to “QVQLVESGGGLVQAGGSLRLSCAASGITFFYYAMGWYRQAPGKEMELVAAIRYYGTSTYADSVKGRFTISRDNAKNTVYLQMNSLKPEDTAVYYCAAVFWFVGSLYDYWGQGTQVTVSS”, “low polyreactivity”.
Regarding “QVQLVESGGGLVQAGGSLRLSCAASGITFGANTMGWYRQAPGKERELVADITVTGDGTYYADSVKGRFTISRDNAKNTVYLQMNSLKPEDTAVYYCAADFWLVSFQWDFEYDYWGQGTQVTVSS”, the “polyreactivity (PSR sort gate)” value was “low polyreactivity”.
In the case of “QVQLVESGGGLVQAGGSLRLSCAASGITFGAYAMGWYRQAPGKERELVAVITRGADTYYADSVKGRFTISRDNAKNTVYLQMNSLKPEDTAVYYCAAEIDLPYYYGSDDDDYWGQGTQVTVSS”, the “polyreactivity (PSR sort gate)” value was “high polyreactivity”.
Consider “QVQLVESGGGLVQAGGSLRLSCAASGITFGDNVKGWYRQAPGKERELVAAISRIGDDTYYADSVKGRFTISRDNAKNTVYLQMNSLKPEDTAVYYCAAEYIYYIWSSYIDWDYYWVQGTQVTVSS”, for which the “polyreactivity (PSR sort gate)” value is listed as “low polyreactivity”.
With “QVQLVESGGGLVQAGGSLRLSCAASGITFGDYAMGWDRQAPGKERELVAGINWSGDGTYYSDSVKGRFTISRDNAKNTFYLQMNSLKPEDTAVYYCAAETFYDYGGYDYWGQGTQVTVSS”, the “polyreactivity (PSR sort gate)” value was “low polyreactivity”.
To “QVQLVESGGGLVQAGGSLRLSCAASGITFGFNAMVWYRQAPGKETELVAAITYRGGSTYYADSVKGRFTISRDNAKNTVYLQMNSLKPEDTAVYYCAADIGRHTDNYDPRYDYWGQGTHVTVSS” belongs “low polyreactivity”; to “QVQLVESGGGLVQAGGSLRLSCAASGITFGPYAIGWYRQAPGKERELVAAISAGGGSTYYADSVKGRFTISRDNAKNSVYLQMNSLKPEDTAVYYCAAYLLHHYGGPEYYYWGQGTQVTVSS”, “high polyreactivity”.
Consider “QVQLVESGGGLVQAGGSLRLSCAASGITFGPYAMGWYRQAPGKERELVATISSSGGSTYYADSVKGRFTISRDNAKNTVYLQMNSLKPEDTAVYYCNAGYAPYLGAYDYWGQGTQVTVSS”, for which the “polyreactivity (PSR sort gate)” value is “low polyreactivity”.
With “QVQLVESGGGLVQAGGSLRLSCAASGITFGRNTLGRYRQAPGKVRELVAAIDSGGNTYADSVKGRFTISRDNAKNTVYLQMNSLKPEDTAVYYCAVDGCEFSSYGYWGQGTQGTVSS”, the “polyreactivity (PSR sort gate)” value is “low polyreactivity”.
Take “QVQLVESGGGLVQAGGSLRLSCAASGITFGRNTMGWYRQAPGKERELVAAIDSGGNTYADSVKGRFTISRDNAKNTVYLQMNSLKPEDTAVYYCAKDVYSYYYPYRYESWGQGTQVTVSS”: the “polyreactivity (PSR sort gate)” value was “low polyreactivity”.
Turning to “QVQLVESGGGLVQAGGSLRLSCAASGITFGRNTMGWYRQAPGKERELVAAIDSGGNTYADSVKWRFTISRDNAKNTVYLQMNSLKPEDTAVYYCAADIGSWYDYWGQGTQVTVSS”, the “polyreactivity (PSR sort gate)” value was “low polyreactivity”.
To “QVQLVESGGGLVQAGGSLRLSCAASGITFGRNTMGWYRQAPGNERELVAAIDSGGNTYADSVKGRFTISRDNAKNTFYLQMNSLKPEDTAVYYCCVDGGEFSSYGYWGQGTQVTVSS” belongs “low polyreactivity”; to “QVQLVESGGGLVQAGGSLRLSCAASGITFGRNTMGWYRQAPRKERELVAAIDSGGNTYADSVKGRFTISRDNAKNTVYLQMNSLKPEDTAVYYCAVDGGEFSSYGYWGQGTQVTVSS”, “low polyreactivity”.
To “QVQLVESGGGLVQAGGSLRLSCAASGITFGSNAMGWYRQAPGKERELVAAIRYSTGSTYYADSVKGRFTISRDNAKNTVYLQMNRLKPEDTAVYYCAKGKNRYTWYGMGYWGQGTQVTVSS” belongs “high polyreactivity”; to “QVQLVESGGGLVQAGGSLRLSCAASGITFGSYAMGWYRQAPGKEREFVAAISLSGGNTYYADSVKGRFTISRDNAKNTVYLQMNSLKPEDTAVYYCAADYEYSGYGYWGQGTQVTGSS”, “high polyreactivity”; to “QVQLVESGGGLVQAGGSLRLSCAASGITFGVYGMGWYRQAPGKERELVAAIDQSGDSTYYADSVKGRFTISRDNAKNTVYLQMNSLKPEDTAVYYCAAQSYDYWYDYDYWGQGTQVTVSS”, “high polyreactivity”.
To “QVQLVESGGGLVQAGGSLRLSCAASGITFGWNVAMGWYRQAPGKERELVATITNGGSTKYADSVKGRFTISRDNAKNTVYLQMNSLKPEDTAVYYCAARVYHRFEWFHQYDYWGQGTQVTVSS” belongs “high polyreactivity”; to “QVQLVESGGGLVQAGGSLRLSCAASGITFGWYAMGWYRQAPGKERELVASISSSGSTNYADSVKGRFTISRDNAKNTVYLQMNSLKPEDTAVYYCNKDYLLRHYYIYVIEGDYWGQGTQVTVSS”, “low polyreactivity”; to “QVQLVESGGGLVQAGGSLRLSCAASGITFGYYAMGWYRPAPGKERELVAAITYSGGSTYYADSVKGRFTISRDNAKNTVYLQMNCLKPEDTAVYDCAAERYVRVWVAGILHYDYWGQGTQVTVSS”, “low polyreactivity”.
As for “QVQLVESGGGLVQAGGSLRLSCAASGITFGYYAMGWYRQAPGKERELVAAINWSGGSTYYADSVKGRFTISRDNAKNTVYLQMNSLKPEDTAVYYCNARPFNRYYREYDYWGQGTQVTVSS”, the “polyreactivity (PSR sort gate)” value is given as “high polyreactivity”.
